Data on 39 molecules can be found in PMC314469, “Protein Interaction Networks by Proteome Peptide Scanning” (PLoS Biology, 2004).

T1: Abp1 SH3 (ABP1_YEAST), P15891
T1 chain: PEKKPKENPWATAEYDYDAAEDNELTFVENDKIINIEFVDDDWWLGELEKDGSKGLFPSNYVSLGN

For this experiment, the target named is T1, Abp1 SH3 (ABP1_YEAST), P15891. Put plainly: SPOT array.
In the case of NRADTLDPALLRP [YDR394W 319-331], the normalised SPOT signal, Boehringer light units (BLU); mean over the file's lines of this peptide amounted to 87.6.
On to NRNTLSTPEEKKP [YER109C 669-681], for which the normalised SPOT signal, Boehringer light units (BLU); mean over the file's lines of this peptide was determined as 201.
For NNNQQKTPKLIKP [YJL087C 616-628], the normalised SPOT signal, Boehringer light units (BLU); mean over the file's lines of this peptide came out at 48.3.
In the case of NSLDLNQADNPLRP [YLL019C 65-78] it was 23.6; in that of NSSATKTPFVRRP [YGR285C 16-28], 4320.
Then NRPDMIDPAMLRP [YLL034C 677-689], with 19.2.
In the case of NRIQGNLHFAPGKP [YAL042W 215-228] it was 253.
Turning to NRPDQIDPAILRP [YDL126C 634-646], the normalised SPOT signal, Boehringer light units (BLU); mean over the file's lines of this peptide came to 45.4.
Then NPAPLTNTYIPYKP [YML020W 157-170], with 150; and NSSFFNQPPVHRP [YPR185W 391-403], with 20.4.
Then NPVVATDPVAAKP [YFL049W 597-609], with 79.
Regarding NSTAAAPIAAPKKP [YGL025C 234-247], the normalised SPOT signal, Boehringer light units (BLU); mean over the file's lines of this peptide is 201.
For the molecule NSAPQLTVPEPSKP [YNL034W 542-555], the normalised SPOT signal, Boehringer light units (BLU); mean over the file's lines of this peptide was found to be 89.3.
In the case of NNPPQMVPKGVRP [YOR188W 1010-1022] it was 1040; in that of NSSQRSQLRFPEKP [YNL139C 1491-1504], 705; in that of NRPAIRIPSLKKP [YML102W 307-319], 5260.
Then NQTPAQGPPLRRP [YDR479C 205-217], with 8650; and NPSNKSIPFWKRP [YNL034W 381-393], with 342.
In the case of NRPSVSHSQSPKRP [YNL080C 288-301] it was 704; in that of NSLLVLDPTYVKP [YOR198C 294-306], 14.6.
Molecule NSMTGIAQILPTKP [YLR082C 61-74] showed a normalised SPOT signal, Boehringer light units (BLU); mean over the file's lines of this peptide of 185.
The molecule NTMVEMKRKKPVRP [YDR436W 382-395] returned a normalised SPOT signal, Boehringer light units (BLU); mean over the file's lines of this peptide of 1120.
As for NNSGTGFPELYKP [YDR527W 27-39], the normalised SPOT signal, Boehringer light units (BLU); mean over the file's lines of this peptide was found to be 24.7.
As for NRPNTLDPALLRP [YKL145W 356-368], the normalised SPOT signal, Boehringer light units (BLU); mean over the file's lines of this peptide came out at 89.2.
Then NPELEKLSVHPLKP [YNL106C 1166-1179], with 66.1.
Then NNPSNSIPKIEKP [YCL014W 1345-1357], with 108.
Then NRPDAVDPALRRP [YGR270W 562-574], with 53.9; and NRMKIMMSMEPKKP [YDL240W 709-722], with 810.
NPIEHVKPIHIKP [YLR201C 20-32] returned a normalised SPOT signal, Boehringer light units (BLU); mean over the file's lines of this peptide of 66.7.
In the case of NSQPVSYPRVSKP [YPL007C 81-93] it was 220; in that of NNNNLDKPKVKRP [YOL148C 556-568], 8720.
In the case of NRPNSVDPALRRP [YLR397C 390-402] it was 225; in that of NRLDILDPALLRP [YGL048C 295-307], 101; in that of NSEMASLPISPRP [YDR359C 196-208], 64.9.
In the case of NSSSKKTSSHPSRP [YER047C 483-496] it was 73.4.
As for NSNGPTPAVLPQKP [YDL053C 27-40], the normalised SPOT signal, Boehringer light units (BLU); mean over the file's lines of this peptide is 56.
In the case of NRTQRKTPTVIRP [YPL093W 23-35] it was 330; in that of NSLIIGVDIVPMKP [YCL054W 71-84], 175.
NRPDTLDPALLRP [YOR259C 328-340]: the normalised SPOT signal, Boehringer light units (BLU); mean over the file's lines of this peptide was 0.
